The text below walks through data of the DeepSol protein solubility set.

A short description of the data set: soluble on expression in E. coli; label from the status in PepcDB or PDB records.
For the sequence “MARFSGKVALITGSSNGIGRAAAILFAQQGAKVTITGRNAERLKETRHEIKKSGIPAENILAIVADVITDEGQMRLINDTVRKFGHLDILVNNAGGALMDAQGRVGMDQDISVFDNTMQINMRSVVTLVQKAKEHLIKSKGEIINVSAMAAGHHGDPIATFYGMSKAALDQFTRSSAISLIQHGVRVNSVSPGFTKTGFGEAMGFPPIAMKKVISFYESHKECAPSGAIAQPGDIAQVILFLADRTMSSYIIGQSIIADGGSSLVMGMHAHDMLDILKA”, the “soluble on expression in E. coli” value is “not soluble”.
The entry for “MSLSLNFLDFEKPIVELETKIQALRDVSRHSTSASVDLDKELEQLEKKSLELKKKIFSDLGAWQVAQLARHPQRPYTLDYLKHIFTEFDELAGDRAYADDKAIVGGIARLEGRSVMVIGHQKGRETREKVKRNFGMPKPEGYRKALRLMEMAERFNMPIITFIDTAGAYPGVGAEERGQSEAIAKNLKVMSGLKVPVICNVVGEGGSGGALAIGVGDYVNMLQYSTYSVISPEGCASILWRDSDKAPQAAEAMGLIAPRLKELELIDEIIEEPLGGAHRDHKQTAENVKATLLRQLADLDALDHENLLERRYQRLMNYGYCEGHHHHHH” is “soluble”.
The entry for “MHLPQMGYDRAITVFSPDGRLFQVEYAREAVKRGATAIGIKCKEGVILIADKRVGSKLLEKDTIEKIYKIDEHICAATSGLVADARVLIDRARIEAQINRLTYDIPITVKELAKKICDFKQQYTQYGGVRPFGVSLLIAGVNEVPKLYETDPSGALLEYKATAIGMGRMAVTEFFEKEYRDDLSFDDAMVLGLVAMGLSIESELVPENIEVGYVKVDDRTFKEVSPEELKPYVERANERIRELLKK” is “soluble”; for “MGSDKIHHHHHHMNVVVCIKQVPDTTNVRIDRKTNNLVREGVPSIINPDDERALELASQLKEKFGATVYVITMGPPQAKEALKDAIAFGLDEAVHLSDRTFAGADTLATTYTLYWGIKKIEERIGKIDLILTGKQAVDGDTGQVGPGLATRFGYALGAYVVRIEEIDPEKKEMVIVRRLDQGFEKIRLKLPAVLTITDELNKPRYADLPNLIRAIRYEPIVWTHKDLGLDPKKCGFFGSPTRVVSTNIPPARKGGDIISKNEDPEVAAEKLIEALKKFEAVRLVEALKPVLEGEKDE” it is “not soluble”; for “MGSDKIHHHHHHMYTYKIGISKEEHDNFIKNSSQTNLLQSSSWAKVKDEWENERIGFYQDSKLVASASILIRPLPLGMTMFYIPRGPVMNYQDKDLVNFVLTSLKKFAKRKRALFIKFDPFILLNHHQIDEEAINNPQAQTIIDTLKHLGCEWLGQTSDMGETIQPRFQANIYAEGFSEANLSKKIRQSIRTAKNKGVSIRFGGYELLADFSDLMKKTEDRKSIHLRGIDYYRKLLDNYPQHSFITLASLNLKERLTELESQRKKAQNNLAKFGDNVKPSKIDNTKKEIERLSDEIAFLQEHLSQGKDTVPLSGTLSLEFGKTSENVYAGMDDEFRRYQAAIYTWFATANHAFERGSHWQNMGGIENDLSGGLYNFKSKFKPEIEEFIGEFNLPVSPLYKLANIAYTIRKKRRSKH” it is “not soluble”.
Consider “MAHHHHHHMANSRASTLAAAAAAASTAAVKPLSYVSLRSHDGKHVILPVAAAAGSRVLHGIFQGLYVMRLHQCNSPADQPPHAQHEQYPMVEEDAQQGELHIPRSGSSSSSGSDVANKAHGSAEVKVDDPIPIIEDEDDIEEDEARHQVNGAAYRSYAAVFPSNVACVPPPPSPLLSTSPPAAPSPCVPPLLEVPICSLEFSTLMRVAEFLVVKITLASHPHYLHEANVFGDLDRTSERDQLVAMQVLLGADFLNC”, for which the “soluble on expression in E. coli” value is reported as “not soluble”.
With “MKKINKGKSLSRFQLVSTLSVLGAMGLAGNVHAAEAFAADSPWMTGDWNGKRTELLDKGYDFSLEYVSEMASNLKGGSNDDTTGRYSDQFALGMKVDLQKVLGWQDAEFKLAITERSGRNISNDRIGDPRAGTLSSSQEVWGRGQTWRLTQMWVKQKYFDGALDVKAGRFGPGEDFNSFPCDFQNLSFCGSQVGNYVNTWYNWPISQWALRVKYNITPEVYAQVGVYEQNPSNLETGNGFKLSGSGTKGMILPVELVWTPTVNSLPGEYRVGYYKSTPNADDVYEDVNGQPQAATGAAFKSHDSKHGWWVVAQQQLTSHNGDASRGLSIFANATVHDKETNFVDNYQQIGLTYKGPFNSRPKDDIGVGIARIHVNDDVQDRVRLANQISGINDFDNPGYLPVQSTEYNSEIYYGFHVTNWLTVRPNLQFIKHPGGVDQVDDAIVAGIKIQSKF”, the “soluble on expression in E. coli” value is listed as “not soluble”.
The entry for “MNYHQYYPIDVVNGPGTRCTLFVSGCVHQCKGCYNQSTWSLSSGHRYTQEMEDKIIADLKDTRIKRRGLSLSGGDPMHPANLSAVLQLVQRVKTECPDKDIWLWTGYTLAELDDSQQALLPYIDVLVDGKFIQEQADPGLEWRGSANQVIHRFTLLEHHHHHH” is “not soluble”; for “MASAEVVSKLEAAFAKLQNASDCHSLLKKYLTKEVFDQLKGKQTKMGATLMDVIQSGVENLDSGIGVYAPDAESYTLFAALLDPIIEDYHKGFKPSDKQPPKDSGDLNTFIDVDPDKKYVISTRVRCGRSLEGYPFNPCLKKQQYEEMESRVKGQLESMSGELRGKYYPLTGMTKETQKQLIDDHFLFKEGDRFLQAAHACKFWPTGRGIYHNDAKTFLVWVNEEDHLRIISMQKGGNLKEVFGRLVTAVGVIEEKVKFSRDDRLGFLTFCPTNLGTTIRASVHIKLPKLGADRKKLEEVAAKYNLQVRGTAGEHSDSPDGVYDISNKRRLGLSEYEAVKEMQDGILELIKAEESAR” it is “soluble”.
Regarding “MFFRCCMKIVQIIGGLGNQMFQFAFYLALKEKYVNVKLDTSSFGAYTHNGFELDKVFHVEYLKASIRERIKLSYQGSEIWIRVLRKLLKRKKTEYVEPYLCFDENAISLSCDKYYIGYWQSYKYFTNIEAAIRGQFHFSKVLSDKNEFIKKQMQNSNSVSLHVRLGDYVNNPAYSNICTSAYYNKAINIIQSKVSEPKFFVFSDDTVWCKDHLKIPNCHIIDWNNKEESYWDMCLMTYCKHNIIANSSFSWWGAWLNTNPERIVIAPGKWINDDRVQVSDIIPSDWICVLEHHHHHH”, the “soluble on expression in E. coli” value is on record as “not soluble”.
The entry for “SAEDGLPKIYSHPPTESSKTPTAATIFFGADNAIPKSETTITSEGDHVTSVNEYMLESDFSTTTDNKLTAKKEKLKSEDDMGTDFIKSTTHLQKEITSLTGTTNSITRDSITEHFMPVKIGNISSPVTTVSLIDFSTDIAKEDILLATIDTGDAEISITSEVSGTLKDSSAGVADAPAFPRKKDEADMSNYNSSIKSNVPADEAVQVTDSIIPEAEIPPAPEESFTTIPDITALEEEKITEIDLSVLEDDTSAVATLTDSDEKFITVFELTTSAEKDKDKREDTLLTDEETTEGASIGMERDTANEAETHSVLLTAVESRYDFVVPASIATNLVEESSTEEDLSETDNTETVPKITEPFSGTTSVLDTPDYKEDTSTTETDIFELLKEEPDEFMI” is “not soluble”.
Turning to “MKIKLEHGAGGELMEELIRDVILKNLTLNSAGGIGLEALDDGATIPFEGKHLVFTIDGHTVRPLFFPGGDIGRLAVSGTVNDLAVMGAKPLALASSLIIGEGFDSDKLEEILKSMNRTAKEVPVPIITGDTKVVEDNIEIFVITAGIGIAEKPISDAGAKVGDLVLVNGTIGDHGIALMSHREGISFETELKSDVAPIWDVVKTVADAIGWENIHAMKDPTRGGLSNALNEMARKADVGILVRESDIPIRPEVKAAGDMLGISPYDVANEGKVIMVVDREYAEDALEAMRKTEKGKDAAIIGEIIKDYPGKVILETGIGGRRFLEPPIGDPVPRVC”, the “soluble on expression in E. coli” value is given as “soluble”.
Consider “MGSDKIHHHHHHMINLEKYRIDLNEKKSTKYIQIFNHIKELIINKELVEHEKLPPIRKLSNFLQVNNTTIVKVYELLENEGYVYKIIGSGTFVSSLNSYKSGIDNRKNKIIVQREDLIHFDNGNPSNDMFPIDSFKNAVNMALSKDGSSIFEYDEGLGSEELREKMVEYLSDGNIKTTKENIQIISGAQQGIDIVCKGLISYSDVVFMEEPSYNGAIEVFKSRGAKIISIPMLDDGIDIGILKLKLEKIKPRLIYIMPNFQNPTGISYSTYKKKKLIELAEEHDFYIIEDDFISDFVFESKDNRTIRSYDDKNRVVYIKSFSKILMPGLRIGIVEMPNELLKKVLWAKYSSDISTPGLIQKSMYYYMNNFDWKNYLSHIEKIYTDKYKLAKNLINDKLSGKLKVRKSCGGINFFLELPRGYTSQAFTNFMLNKGVSMLPGTYFFDNLVDDRFFRINIARPSMEELEKGISIISDNIDEFFCEYKNKLDIKSNKLFY”, for which the “soluble on expression in E. coli” value is given as “not soluble”.
With “MGSSHHHHHHSSGRENLYFQGMTTAKRDTYTPETLLSVAVQVFIERGYDGTSMEHLSKAAGISKSSIYHHVTGKEELLRRAVSRALDELFGILDEEHARVGTAAERLEYVVRRMVEVLMAELPYVTLLLRVRGNTGTERWALERRREFDHRVAALLKDAAAEGDVRADVEVRLATRLVFGMINSIVEWYRPEGPDGRSDASGASGVSGAGEREVVDAVARLVFGGLRKAS”, the “soluble on expression in E. coli” value is recorded as “soluble”.
The entry for “MRNKNMSTIYQTSATASAGRNGVVSTEDKLLELNLSYPKEMGGSGTATNPEQLFAVGYAACFSNAILHVAREAKVALKEAPVTATVGIGPNGQGGFALSVALAAHIALEDEQARQLVTVAHQVCPYSNAVRGNIDVQVSVNGLAL” is “not soluble”; for “MTNIERLERCADIMRRRWIYDPEAGLLFSRETKDVIKGSMTNKGHLVVTVHEGKFKVTLTYQKACYVYTYGAYDETLYEVHHVNLNKQDNRIKNIRLMPKEKHRRIHKNVRKLIRLGHTQWLQPQLIEQSL” it is “not soluble”.
Regarding “MGSDKIHHHHHHMDLRQIRTFVYIAELRSYTRAAAFLHVSQPALSRQMRLLEEELRLKLFLRHGHGVELTNEGVAFFARCRDVLSEFEQLRHDFRSTGANKAVMGLVSVGLPAPATRFATPKLLHAARKSYPGLSVRFAEGFSALLHEWLLSGSLDLAVLFGSNTPKLLTSLPVLVEDLVAISAATKTSRKKNFVNAQDLQNTPLILPHRPHILRELIDSLHLKKVEILEVDSTSLMIELARVGDGTTILPAGSAEQSIRAGHVVALPIINPTLSWQVSICYSSVRPLSVGARVVLDLMRREIAQKVTSGEWLSGRLIRPGTEMTEGLDAAP”, the “soluble on expression in E. coli” value was “not soluble”.
For “VSELSVATGAVSTASSSIPMPAGVNPADLAAELAAVVTESVDEDYLLYECDGQWVLAAGVQAMVELDSDELRVIRDGVTRRQQWSGRPGAALGEAVDRLLLETDQAFGWVAFEFGVHRYGLQQRLAPHTPLARVFSPRTRIMVSEKEIRLFDAGIRHREAIDRLLATGVREVPQSRSVDVSDDPSGFRRRVAVAVDEIAAGRYHKVILSRCVEVPFAIDFPLTYRLGRRHNTPVRSFLLQLGGIRALGYSPELVTAVRADGVVITEPLAGTRALGRGPAIDRLARDDLESNSKEIVEHAISVRSSLEEITDIAEPGSAAVIDFMTVRERGSVQHLGSTIRARLDPSSDRMAALEALFPAVTASGIPKAAGVEAIFRLDECPRGLYSGAVVMLSADGGLDAALTLRAAYQVGGRTWLRAGAGIIEESEPEREFEETCEKLSTLTPYLVARQ”, the “soluble on expression in E. coli” value is “soluble”.
The entry for “MGHHHHHHSHMAERETETSNSESKQDKAASSKEKNGCNANSFEGSSTTKSEESITVSDKENETCLADQETGSKNIVSCDSNIGADKVEKKKQIQHVCQEMELKMCQSSENIILSDQIKDHNSSEARFSSKNIKDLRLASDNVSIDQFLRKRHEPESVSSDVSEQGSIHLEPLTPSEVLEYEATEILQKGSGDPSAKTDEVVSDQTDDIPGGNNPSTTEATVDLEDEKERS” is “soluble”.
